We go through 3 variants from IntAct's records for PubMed 19114660.

B1: Occludin (Homo sapiens), Q16625-1 (parent)
chain: MSSRPLESPPPYRPDEFKPNHYAPSNDIYGGEMHVRPMLSQPAYSFYPEDEILHFYKWTSPPGVIRILSMLIIVMCIAIFACVASTLAWDRGYGTSLLGGSVGYPYGGSGFGSYGSGYGYGYGYGYGYGGYTDPRAAKGFMLAMAAFCFIAALVIFVTSVIRSEMSRTRRYYLSVIIVSAILGIMVFIATIVYIMGVNPTAQSSGSLYGSQIYALCNQFYTPAATGLYVDQYLYHYCVVDPQEAIAIVLGFMIIVAFALIIFFAVKTRRKMDRYDKSNILWDKEHIYDEQPPNVEEWVKNVSAGTQDVPSPPSDYVERVDSPMAYSSNGKVNDKRFYPESSYKSTPVPEVVQELPLTSPVDDFRQPRYSSGGNFETPSKRAPAKGRAGRSKRTEQDHYETDYTTGGESCDELEEDWIREYPPITSDQQRQLYKRNFDTGLQEYKSLQSELDEINKELSRLDKELDDYREESEEYMAAADEYNRLKQVKGSADYKSKKNHCKQLKSKLSHIKKMVGDYDRQKT

Variants of B1 are the subject of this assay. The settings on record: with kpcl_human kpcl_human.
Turning to T438A, the “effect of a mutation on the interaction” value is “decreasing interaction”.

With T403A, the “effect of a mutation on the interaction” value was “decreasing interaction”.

For the variant T404A, the “effect of a mutation on the interaction” value is “decreasing interaction”.
